According to KR20120084755A:

Target: RSV A2 바이러스의 F 단백질 (Respiratory Syncytial Virus (RSV), strain A2) (UniProt P03420)
Assay: cell-based or functional assay

Chain of UniProt P03420 (P03420 26-574): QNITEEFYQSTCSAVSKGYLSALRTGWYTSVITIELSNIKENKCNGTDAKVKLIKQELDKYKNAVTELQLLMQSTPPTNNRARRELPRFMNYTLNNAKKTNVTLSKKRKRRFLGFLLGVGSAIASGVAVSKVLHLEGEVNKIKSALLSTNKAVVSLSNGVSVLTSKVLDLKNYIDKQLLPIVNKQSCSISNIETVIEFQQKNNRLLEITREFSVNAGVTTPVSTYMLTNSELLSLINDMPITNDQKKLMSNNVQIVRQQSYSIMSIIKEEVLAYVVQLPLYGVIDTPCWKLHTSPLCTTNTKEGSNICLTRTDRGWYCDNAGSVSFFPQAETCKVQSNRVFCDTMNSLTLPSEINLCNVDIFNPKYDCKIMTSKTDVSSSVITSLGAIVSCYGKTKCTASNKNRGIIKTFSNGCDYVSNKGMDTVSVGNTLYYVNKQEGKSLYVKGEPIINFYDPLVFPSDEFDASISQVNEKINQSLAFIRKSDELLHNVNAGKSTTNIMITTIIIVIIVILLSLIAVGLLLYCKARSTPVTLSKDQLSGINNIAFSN

| Substance | IC50, RSV A2 neutralisation on HEp2 cells (standard TCID50 culture assay) [ng/㎖] |
| --- | --- |
| AM16 (antibody) | 78.7 |
| AM23 (antibody) | 4.18 |
| D25 (antibody) | 1.28 |
| 팔리비주마브(Palivizumab) (antibody) | 152 |
